The record followed here is patent US20250340649A1 (RUTGERS THE STATE UNIVERSITY OF NEW JERSEY, published 2025).

Assay [1] deals with T1, Biotinylated Human Fc gamma RIIIA/CD16a (F176) Protein, Avitag, His Tag (Acrobiosystems CDA-H82E8) (human, UniProt P08637 17-208, biotinylated (Avitag)).
T1 construct: also called biotinylated CD16a; CD16a antigen
As to the kind of experiment: BLI (Octet), biotinylated CD16a on streptavidin sensor, BiKE 1.875-60 nM. The procedure: (§1) An Octet® Streptavidin (SA) Biosensor was soaked for at least 10 min in DPBS supplemented with 0.1% Casein, biotinylated CD16a, CD16b-NA1, CD16b-NA2, and HER2 antigens were loaded onto the streptavidin (SA) biosensor until 1 nm shift was reached. Next, the sensor was dipped into the washing buffer (DPBS+0.05% Tween 20+0.1% Casein) for 2 min to reach the baseline. […] Then, in the dissociation step, sensors were dipped into the washing buffer for 5 min to acquire data (Table 5). The data were then analyzed using Octet Data Analysis HT 11.1 software. The sensorgrams were subtracted from the reference and fitted into 1:1 binding model for data analysis. Finally, the affinity and kinetics were analyzed using “Association and Dissociation”.
(In general: Biolayer interferometry detects binding as a change in optical thickness at a sensor tip.)

The target of assay [2] is T1, Biotinylated Human Fc gamma RIIIA/CD16a …. As to the kind of experiment: ELISA, biotinylated CD16a on streptavidin plate, tenfold dilutions 0-1000 nM, anti-cMyc-HRP. The procedure: For ELISA, 50 μL of biotinylated CD16a was added to the streptavidin-coated plate and incubated for 45 min at RT. […] Next, 100 μl anti-cMyc tag HRP conjugated secondary antibody (1:10,000 dilutions) was added. Finally, after washing, the substrate was added for color development, and the plate was read using OD of 450 nm.
Background: An ELISA detects its analyte on a solid surface through an enzyme-linked reagent.

In assay [3] the target is T2, HER2 on the surface of HER2+ cancer cells (BT474, SKOV-3) (human, UniProt P04626 23-1255).
T2 construct: whole, on cells; also called human epidermal growth factor receptor 2
The assay is described as follows: flow cytometry, SKOV-3 (HER2+) cells, tenfold dilutions 0.001-1000 nM. (In general: A flow cytometer gives signals particle by particle.)

Assay [4] deals with T3, Biotinylated Human Fc gamma RIIIB/CD16b (NA2) Protein, His, Avitag (Acrobiosystems CDB-H82Ea) (human, UniProt O75015 17-200, biotinylated (Avitag)).
T3 construct: NA2 allele; also called CD16-NA2
The assay is described as follows: BLI (Octet), biotinylated CD16b-NA2 on streptavidin sensor, BiKE 1.875-60 nM. The procedure:
as §1

Assay [5] concerns the target T4, Biotinylated Human Fc gamma RIIIB/CD16b (NA1) Protein, His, Avitag (Acrobiosystems CDB-H82E4) (human, UniProt O75015 17-200, biotinylated (Avitag)).
T4 construct: NA1 allele; also called CD16b-NAI
The assay is described as follows: BLI (Octet), biotinylated CD16b-NA1 on streptavidin sensor, BiKE 1.875-60 nM. On the procedure:
as §1

In assay [6] the target is T5, Biotinylated Human Her2/ErbB2 Protein, His, Avitag (AcroBiosystem HE2-H82E2) (human, UniProt P04626 23-652, biotinylated (Avitag)).
T5 construct: Bought protein; Loaded on streptavidin sensors for BLI; also called biotinylated HER2; HER2 antigen
As to the kind of experiment: ELISA on HER2, tenfold dilutions 0-1000 nM; the HER2 form is not stated for this ELISA, Table 17 lists only the biotinylated HER2.

Assay [7] has as its target T6, CD16a on NK92 (CD16+) cells (human, UniProt P08637 17-254).
T6 construct: whole, on cells; also called NK92 cells (CD16a+); haNK92 cells (CD16a+)
The assay is described as follows: flow cytometry, fixed haNK92 (CD16+) cells, tenfold dilutions, anti-histag-FITC. The procedure: First, CD16a+NK92 was harvested and washed once using Dulbecco's phosphate-buffered saline (DPBS) supplemented with 2% FBS (2% DPBS-FBS). Next, all the cells were fixed using 3.7% paraformaldehyde for 20 min at RT, followed by washing twice. […] Following washing three times, the secondary antibody, anti-Histag antibody FITC labeled, was added. After washing, the samples were run on Cytoflex using FL1 channel.

The target of the next assay is T7, Bovine serum albumin (bovine, UniProt P02769 25-607).
T7 construct: Control antigen; also called BSA
As to the kind of experiment: ELISA, periplasmic extract on coated antigen, anti-HA-HRP. The text has this:
(§2) FIGS. 4A-4B. FIG. 4A) PBMCs were isolated using Ficoll-Paque method. Then, the RNAs were extracted, cDNA library was generated, genes amplified, and then cloned into pMECS-GG phagemids. The phagemids were used in phage display and the screened candidates were used to infect TG1 bacteria. Colonies were selected, grown, lysed, and the lysates removed. FIG. 4B) The lysates were then used in ELISA to screen for VHHs with the highest affinity to HER2 and with negligible binding to HER1, HER3, and HER4. Bovine serum albumin (BSA) and skim milk were used as controls.
(§3) The next day, each well was washed three times with washing buffer (DPBS+0.1% Tween 20) and then incubated with blocking buffer (2% skimmed milk) for 2 h at RT to block the free binding sites. Next, blocking buffer was replaced with 100 μL of periplasmic extract from above and incubated for 1 h at RT while shaking at 700 rpm. Each well was washed six times with washing buffer (DPBS+0.1% Tween 20) followed by addition of 100 μL HRP Anti-HA tag antibody (1:10000 dilution) and incubation for 1 h at RT while shaking at 700 rpm. Each well was washed again six times, followed by addition of 50 μL 1-Step™ Turbo TMB-ELISA substrate solution at incubation at RT for 15 min (without shaking and at dark). The reaction was stopped by adding 50 μL of stop solution ([…] sulfuric acid) and the plate was read at 450 nm using 630 nm as a reference (450/630 nm).

The next assay deals with T8, HER3 (human, UniProt P21860 20-643, limits assumed).
T8 construct: also called Recombinant Human ErbB 3 protein, Abcam ab196072
The description is as above.
Source text: as §2, §3

A further assay has as its target T9, HER1 (human, UniProt P00533 25-645).
T9 construct: The text says only 'HER1'; also called Recombinant human EGFR protein (Fc Chimera), Abcam ab155726; Fc part of the bought chimera not given
The description is as above.
Source text: as §2, §3

Assay [8] concerns the target T2, HER2 on the surface of HER2+ cancer …. The assay is described as follows: flow cytometry on SKOV-3 cells (HER2+), 100 nM binding sites. On the procedure:
(§4) OVASC-1 is an ascites-derived epithelial ovarian cancer cells obtained from a patient with advanced metastatic disease (11, 12). The expressed VHHs were then incubated with HER2⁺ (BT474, JIMT-1, and SKOV-3) and HER2⁻ (MDA-MB-231) cancer cell lines. Approximately 10⁶ cells were counted and washed using DPBS-1% FBS. […] After washing, FITC-conjugated anti-Human IgG or anti-Histag antibody were added and incubated on ice for 60 min. Cells were washed three times and then analyzed using Beckman-Coulter Gallios flow cytometer at Rutgers Flow cytometry core facility.
(§5) In the next step, the ability of the VHHs to recognize and bind to HER2 on the surface of HER2+ cancer cells was evaluated. […] MDA-MB-231 and OVASC-1 (HER2⁻) cancer cells were used as negative controls.

Assay [9] has the same target. The assay is described as follows: flow cytometry on BT-474 cells (HER2+), 100 nM binding sites. On the procedure:
as §4, §5

T4 sequence (O75015 other isoform, or with tags, fused parts or gaps limits assumed): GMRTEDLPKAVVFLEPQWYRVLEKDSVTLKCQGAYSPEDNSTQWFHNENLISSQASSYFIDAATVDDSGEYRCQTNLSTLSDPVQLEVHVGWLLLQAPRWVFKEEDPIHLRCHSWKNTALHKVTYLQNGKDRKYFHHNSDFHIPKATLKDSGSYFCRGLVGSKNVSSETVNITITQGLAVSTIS
T3 sequence (O75015 17-200 N65S limits assumed): as the sequence (O75015 other isoform, or with tags, fused parts or gaps limits assumed) above, with R20S, N49S, D66N, V90I counted along it
T1 sequence (P08637 17-208 limits assumed): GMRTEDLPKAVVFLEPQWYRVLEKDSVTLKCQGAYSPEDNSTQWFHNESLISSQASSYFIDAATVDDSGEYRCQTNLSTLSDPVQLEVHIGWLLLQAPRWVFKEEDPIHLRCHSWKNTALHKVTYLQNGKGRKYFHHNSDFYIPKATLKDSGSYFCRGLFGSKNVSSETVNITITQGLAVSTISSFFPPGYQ
T7 sequence (P02769 25-607 limits assumed): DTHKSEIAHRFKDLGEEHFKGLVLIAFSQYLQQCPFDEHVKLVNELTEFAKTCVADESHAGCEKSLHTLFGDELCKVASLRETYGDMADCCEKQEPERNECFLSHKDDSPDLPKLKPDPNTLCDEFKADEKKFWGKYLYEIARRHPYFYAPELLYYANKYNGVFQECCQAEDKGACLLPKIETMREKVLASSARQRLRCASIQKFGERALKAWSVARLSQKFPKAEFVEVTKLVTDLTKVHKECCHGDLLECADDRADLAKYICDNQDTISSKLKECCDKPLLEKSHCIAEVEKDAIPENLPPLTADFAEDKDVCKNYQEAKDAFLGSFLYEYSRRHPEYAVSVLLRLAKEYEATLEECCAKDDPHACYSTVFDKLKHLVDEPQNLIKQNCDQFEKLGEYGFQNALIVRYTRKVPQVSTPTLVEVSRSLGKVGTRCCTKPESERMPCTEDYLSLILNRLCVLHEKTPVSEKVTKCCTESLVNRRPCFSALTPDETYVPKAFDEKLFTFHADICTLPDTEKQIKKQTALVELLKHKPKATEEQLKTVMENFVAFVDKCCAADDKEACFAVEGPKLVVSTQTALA
T6 sequence (P08637 17-254 F176V): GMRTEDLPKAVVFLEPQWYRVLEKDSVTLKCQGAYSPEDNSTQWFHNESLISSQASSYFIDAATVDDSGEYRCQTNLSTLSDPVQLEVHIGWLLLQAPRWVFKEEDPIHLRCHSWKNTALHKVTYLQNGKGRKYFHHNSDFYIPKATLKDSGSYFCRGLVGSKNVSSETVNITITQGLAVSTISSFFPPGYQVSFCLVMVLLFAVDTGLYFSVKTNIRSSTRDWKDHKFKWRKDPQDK

B1: E5C1 BiKE (BiKE: HER2/CD16a) (bispecific antibody)
chain: QVQLQESGGGLVQAGGSLRLDCAASGRTLSSYVVGWFRQAPGKEREVVAAIGWSRTSTFYTDSVKGRFTISRDNTENTVYLQMNSLKPGDTAVYYCAADSSPRRWDRESDFGSWGQGTQVTVSSPSGQAGAAASESLFVSNHASQVQLQESGGGLVQAGGSLRLSCAASGRTFRLYRMGWFRQAPGKEREFVGSIKMIDGSTLYGDPVKGRFTISRDNTKFMAYLQMNSLKPEDTAVYYCASVSRVTGSYDSWGQGTQVTVSSWELQGSEQKLISEEDLHHHHHHHHHHHH
notes: Monomer by LC-MS; also called BIKE: CD16a/HER2
Take B1: the figures for the Kd in assay [1], in assay [4] and in assay [5] were 2.7 nM, 6.71 nM and 1730 nM, respectively. For the same molecule, the values for the koff in [1], in assay [4] and in [5] were 0.00051 s⁻¹, 0.000946 s⁻¹ and 0.0743 s⁻¹, respectively. Besides, the kon (as a rule, the rate constant with which the complex forms) in assay [1] came to 189000 M⁻¹ s⁻¹; in [4] it was 140000 M⁻¹ s⁻¹; in assay [5], 42900 M⁻¹ s⁻¹. Moreover, the EC50 (read off the curve) (as a rule, the concentration giving half of the maximal effect) in [2] is roughly 0.3 nM; in assay [3], roughly 1 nM; in assay [6], roughly 0.4 nM; in assay [7], roughly 1 nM.

B2: F4 anti-HER2 VHH (VHH)
VHH: QVQLQESGGGLVQAGGSLKLSCAASGRTLSAYVVGWFRQAPGKERESVAAIGWSSRSPYYPDSVKGRFTISEDNTKNTVYLQMNSLKPDDTAVYYCAADSYPRRWDRESDFGSWGQGTQVTVSS
Regarding B2, the binding result with Bovine serum albumin is given as “no binding (tested: extract, conc. not given)”; in the assay with HER3, “no binding (tested: extract, conc. not given)”; with HER1, “no binding (tested: extract, conc. not given)”. In addition, the “FITC+ (%)” value in assay [8] came out at 93.3%; in assay [9], 98.5%. Also, the “FITC- (%)” value in assay [8] came out at 6.51%; in assay [9], 1.45%. Moreover, the “Mean (MFI)” value in [8] was determined as 86400; in [9], 99500.

B3: H7 anti-HER2 VHH (VHH)
VHH: QVQLQESGGGLVQAGGSLRLSCAASGHTLSTYVVAWFRQAPGKERESVAAIGWSTRSPYYADSVKGRFTISEDNTKNTVYLQMNSLKPDDTAVYYCAADSYPRRWDRESDFGSWGQGTQVTVSS
On to B3, for which the binding result is “no binding (tested: extract, conc. not given)” in the assay with Bovine serum albumin; “no binding (tested: extract, conc. not given)” with HER3; “no binding (tested: extract, conc. not given)” in the assay with HER1. In addition, the “FITC+ (%)” value in assay [8] worked out at 94.8%; in assay [9], 98.3%. Besides, the “FITC- (%)” value in assay [8] came out at 5.02%; in assay [9], 1.72%. Also, the results for the “Mean (MFI)” value in assay [8] and in assay [9] were 99900 and 100000, respectively.

B4: E9 anti-HER2 VHH (VHH)
VHH: QVQLQESGGGSVQAGGSLKLSCAASGRTLSAYVVGWFRQAPGRERESVAAIGWSTHSVYYADSVKGRFTISRDNTENTVYLQMNSLKPDDTAVYYCAADSSPRRWDRESDFGSWGQGTQVTVSS
Consider B4, for which the binding result is on record as “no binding (tested: extract, conc. not given)” with Bovine serum albumin; “no binding (tested: extract, conc. not given)” with HER3; “no binding (tested: extract, conc. not given)” with HER1. Also, the entries for the “FITC+ (%)” value in assay [8] and in assay [9] were 93.1% and 98.2%, respectively. Besides, the “FITC- (%)” value in [8] was determined as 6.76%; in assay [9], 1.85%. Besides, the results for the “Mean (MFI)” value in assay [8] and in assay [9] were 88100 and 97900, respectively.

B5: F2 anti-HER2 VHH (VHH)
VHH: QVQLQESGGGLVQAGGSLKLSCAASGRTLSAYVVGWFRQAPGRERESVAAIGWSTHSVYYADSVKGRFTISRDNTENTVYLQMNSLKPDDTAVYYCAADSSPRRWDRESDFGSWGQGTQVTVSS
Take B5: the binding result is recorded as “no binding (tested: extract, conc. not given)” with Bovine serum albumin; “no binding (tested: extract, conc. not given)” with HER3; “no binding (tested: extract, conc. not given)” in the assay with HER1. Moreover, the “FITC+ (%)” value in assay [8] was 93.1%; in [9], 98.6%. For the same molecule, the figures for the “FITC- (%)” value in assay [8] and in [9] were 6.68% and 1.42%, respectively. The “Mean (MFI)” value in assay [8] amounted to 100000; in assay [9], 99500.

B6: D6 anti-HER2 VHH (VHH)
VHH: QVQLQESGGGLVQAGGSLTLSCAASGRTFSTYVVGWFRQAPGKERESVAAIGWASNSPYYADSVKGRFTISRDNTKNTVYLQMKSLKPDDTAVYYCAADSYPRRWDRESDFGSWGQGTQVTVSS
For the molecule B6, the binding result with Bovine serum albumin is reported as “no binding (tested: extract, conc. not given)”; with HER3, “no binding (tested: extract, conc. not given)”; with HER1, “no binding (tested: extract, conc. not given)”. The “FITC+ (%)” value was determined as 94.6% in [8] and 98.1% in [9]. Besides, the “FITC- (%)” value in assay [8] came out at 5.24%; in [9] it was 1.86%. Further, the “Mean (MFI)” value in assay [8] was 89400; in assay [9], 96100.
